# Measurements taken from publication PMC7509637 (Advanced Science, 2020).
# “Also recorded” adds a separate entry of the source.
# Assays:
# [1] = target: T1, Aβ (Homo sapiens, UniProt P05067); assay: ThT assay of Aβ with P. aeruginosa biofilm fragments; assay type: biochemical; settings: Aβ 50 × 10^−6 M ± biofilm fragments 5 × 10^−6 M (protein content), 37 °C, Figure S14
# T1 construct: purchased Anaspec Inc
# Protocol: P. aeruginosa biofilm fragments were generated by incubating fresh subcultures of bacteria (wild‐type reference strain PAO1) in cation‐adjusted Mueller‐Hinton broth (CAMHB) overnight in a 96‐well plate. After 48 h of incubation, the planktonic bacteria were pipetted out from the culture and replaced with fresh PBS (pH 7.4). The surface pellicle biofilm and ring biofilm attached to the well walls were scooped out and dispersed in PBS. The separated biofilm chunks were purified from the embodied bacteria by vortexing (10 min) with 20 µm glass beads and then repeated centrifugal washing (3 min, 2000 g) with PBS (pH 7.4). The biofilm containing supernatant was collected, concentrated, and adjusted to the concentration of 5 mg mL^−1 in deionized water. The concentration was adjusted with respect to the protein contents of biofilm via the BCA assay. […]
# Aβ (Anaspec Inc., purity ≥ 95%) was dissolved in 100 µL of hexafluoro‐2‐propanol (HFIP) and incubated at room temperature for 3 h. […] The ThT fluorescence (excitation: 445 nm/ emission: 485 nm) was recorded at specified time intervals for 50 h. Kinetic parameters (rate constant k, half‐life t 1/2 and lag‐time) were calculated as described.^[ ^94 ^] Briefly, kinetic curves were fitted to a sigmoidal curve =y0+ymax−y0/1+e^−(t−t1/2)k , where y 0 and y max are initial and final ThT fluorescence values, allowing us to calculate lag time = t 1/2 − 2/k.
# [2] = system: adult zebrafish; assay: Behavioral pathology of adult zebrafish (swimming); assay type: in vivo, zebrafish (AB, Danio rerio)
# Protocol: Adult zebrafish (10 months) were employed for the study. Prior to microinjection, adult zebrafish were anesthetized by placing them in a beaker filled with ice‐chilled tricaine (0.01% in Holtfreter's buffer) for 20 s. The samples of Aβ alone and Aβ with FapCS or bacterial biofilm fragments were injected to the cerebroventricular space of adult fish with a 1 µL Hamilton glass syringe. The concentration of the Aβ peptide was 40 × 10^−6 M (in PBS, pH 7.4) while FapCS or biofilm fragments were included at a 10:1 ratio (Aβ:FapCS or biofilm fragments). The needle penetrated between left and right telencephalon for not more than 1 mm and injection volume was 1 µL. The syringe was washed with ethanol and PBS in between the injections. The injections were made under a stereomicroscope and fish were held in place with forceps. After microinjection, the fish was placed back in the water tank for recovery.
# The behavioral pathology of the adult fish was observed after 4 d and 2 weeks of microinjection. The behavioral pathology of movement frequency and traveled distance was recorded with a zebrabox (Viewpoint) in a 1 L swimming tank. For cognitive function test, the tank was hypothetically divided into two parts of arena 1 and arena 2, and arena 2 was labeled by pasting a red paper at the bottom of the tank. The behavior of the untreated fish was recorded as positive control, in both arenas. Then fish from each sample were trained to avoid swimming in arena 2 by shocking with a 9 V battery electrodes, whenever the fish swim into arena 2. The fish were allowed to familiarize with the tank for 30 min and then trained for 20 min. After training, the swimming behavior of the fish was recorded in whole tank and then analyzed for arena 1 versus arena 2 with software EthnoVision X1.
# The observations were made for 1 min with three fish per samples. The measurements were made three times in a day and then averaged together. […] Movement trajectories were also recorded with the instrument's camera.
# [3] = system: Aβ fibrils; assay: AFM of fibrils, FiberApp statistical analysis; settings: compared with the control
# Protocol: Aβ incubated in the presence or absence of FapCS, FapC monomers, FapC fibrils or bLgS were subjected to TEM imaging. After incubation for 12 h, a drop of sample was applied on a glow‐discharged carbon‐coated copper grid. After 1 min, the sample was blotted and then negatively stained with uranyl acetate (1%) for 30 s. The dried grid was then imaged with a Technei F20 TEM at 200 kV. For AFM, a drop of sample was placed on freshly cleaved mica surface and rinsed with water after 2 min and dried with pressurized air. The sample was scanned with an AFM (Nanoscope VIII Multimode Scanning Force Microscopes, Bruker), covered with an acoustic hood to minimize the vibrational noise. Images were acquired under the tapping mode with a silicon nitride cantilever (Bruker). AFM images were processed with Nanoscope Analysis 1.5 software to flatten the background and to calculate the statistical parameters.
# [4] = target: T1, Aβ; assay: Static light scattering (SLS) of Aβ fibrillar growth; assay type: biochemical; settings: ratio as for ThT assay, Malvern Zetasizer Nano, n = 3
# Protocol: Increases in the size of Aβ in the presence and absence of FapCS or bLgS were monitored by SLS. Solution of Aβ with FapCS or bLgS, at a similar ratio as for the ThT assay, was prepared and incubated. SLS measurements were performed at different time intervals using a Malvern Zetasizer Nano. The parameters were fixed at 7 for attenuator and 4.20 mm for cell position. Quartz cells with low volume capacity (100 µL) were used. The light scattering intensities (kilo counts per sec) and the refractive indices of the samples, buffer alone and toluene were measured.
# [5] = system: Aβ monomers; assay: Isothermal titration calorimetry (ITC); assay type: binding; settings: Aβ 200 × 10^−6 M into 20 × 10^−6 M seeds, 0.1% NH4OH, 25 °C
# Protocol: ITC (Malvern MicroCal iTC200) was used to explore the interaction between Aβ monomers and oligomers (Aβo) with FapCS. Sample solutions were degassed at 25 °C while stirring (100 rpm). Aβ (200 × 10^−6 M, 40 µL) was filled into the syringe while FapCS or bLgS (20 × 10^−6 M, 200 µL) were filled in the cell (coin shaped). 0.1% NH4OH buffer solution was used for both solutions. Aβ was injected into the cell at an injection volume of 2 µL at the duration of 4 s and with a spacing of 180 s. First injection was 0.2 µL for 0.4 s duration and a total of 16 injections were programed. The heat exchange was recorded with a Microcal analysis (origin v7) software. The heat of dilution (Aβ against buffer) was subtracted from the interaction heat of samples. The acquired curves were fitted to a sequential binding model and thermodynamic parameters of binding energy (ΔH), free energy (ΔG), and entropic factor (TΔS) were calculated. Aβo for the ITC experiments was prepared by incubating Aβ aqueous solution (200 × 10^−6 M) at 4 °C for 48 h.^[ ^65 ^]
# [6] = 2 weeks postinjection, Aβ 1 µL, 40 × 10^−6 M, n = 3 per group, three groups
Molecule,lag time [1],"distance traveled [2, 6]","movement frequency [2, 6]",swimming behavior (in words) ([2]; 4 d postinjection),rise in fibrillar diameter of Aβ upon seeding vs control [3],Aβ fibrillar growth by SLS [4],binding to Aβ by ITC (in words) [5]
amyloid beta [Aβ],23 h,57 ± 6.9 cm per min,6 ± 2 per min,did not produce significant difference in the swimming behavior compared to the buffer control,,,
FapCS: FapC seeds obtained by sonication of mature FapC fibrils (P. aeruginosa) (protein) GNEGGWHPPKPNPQSNNKGGATALVVDTQQNYNNKVSNFGTLNNASVSGSIKDASGNVGVNVAAGDNNQQANAAALASADASFVFGTATASTSVLQSGYGNTLNNYSNPNTASLSNSANNVSGNLGVNVAAGNFNQQKNDLAAAVSNGQYSTAGSAASQTSTGNTTVNSANYAYGGTYVSLKLNADGSYKGTSDQIGDVYLDTWEGQTHPGGSNTGHIDVDSQAQGAKDLNHDGGAFAFKEKGDVDLKGTVSGFIPAIVGFKTPVTNNASLSNSLQNVSGNVGVNIAAGGGNQQSNSLSIAAGCSSCPAGGESLGF,,,,,37%,significantly more rapid Aβ fibrillar growth; also recorded: rapid growth in the size of Aβ fibrils,weak but favorable interaction; also recorded: favorable binding with Aβ
